Earlier results as cited in paper PMC12520553.
Like-named read-outs stand apart in the source and are kept apart here.

Assays:
RAGE (Homo sapiens) [1] = molecular target: RAGE (Homo sapiens) (UniProt Q15109)
sRAGE ECD (Homo sapiens) = sRAGE ECD (Homo sapiens) (UniProt Q15109); assay: MST
S100B (Homo sapiens) [2] = molecular target: S100B (Homo sapiens) (UniProt P04271); assay: SPR
Aβ42 Aβ42 (Homo sapiens) [3] = molecular target: Aβ42 Aβ42 (Homo sapiens) (UniProt P05067)
glucose-BSA (Bos taurus) = glucose-BSA (Bos taurus) (UniProt P02769); assay: SPR
glucose-BSA (Bos taurus), sequence (P02769 25-607): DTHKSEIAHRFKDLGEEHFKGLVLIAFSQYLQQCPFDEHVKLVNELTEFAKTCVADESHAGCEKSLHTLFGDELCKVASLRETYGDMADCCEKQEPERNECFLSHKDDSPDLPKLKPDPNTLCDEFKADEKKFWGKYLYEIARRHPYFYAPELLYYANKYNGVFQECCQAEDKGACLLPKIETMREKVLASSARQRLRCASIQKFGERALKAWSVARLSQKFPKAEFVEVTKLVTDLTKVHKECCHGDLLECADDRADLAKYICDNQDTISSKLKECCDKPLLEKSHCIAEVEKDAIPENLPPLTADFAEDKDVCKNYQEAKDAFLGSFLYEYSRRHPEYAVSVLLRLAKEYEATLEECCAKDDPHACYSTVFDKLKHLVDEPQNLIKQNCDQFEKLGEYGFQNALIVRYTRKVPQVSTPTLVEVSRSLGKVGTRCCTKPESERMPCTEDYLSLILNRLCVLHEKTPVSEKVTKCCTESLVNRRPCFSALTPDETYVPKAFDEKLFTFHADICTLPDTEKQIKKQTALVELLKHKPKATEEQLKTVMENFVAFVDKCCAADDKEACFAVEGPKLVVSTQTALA

[4] = molecular target: fructose-BSA (Bos taurus) (UniProt P02769); assay: SPR
fructose-BSA (Bos taurus), sequence (P02769 25-607): as above

S100A9 (Homo sapiens) = S100A9 (Homo sapiens) (UniProt P06702); assay: SPR
S100A9 (Homo sapiens), sequence (P06702 whole entry): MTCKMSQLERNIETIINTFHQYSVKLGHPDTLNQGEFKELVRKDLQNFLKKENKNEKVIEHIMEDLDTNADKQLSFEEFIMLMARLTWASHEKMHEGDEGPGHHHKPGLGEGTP

S100A8 (Homo sapiens) = S100A8 (Homo sapiens) (UniProt P05109); assay: SPR
S100A8 (Homo sapiens), sequence (P05109 whole entry): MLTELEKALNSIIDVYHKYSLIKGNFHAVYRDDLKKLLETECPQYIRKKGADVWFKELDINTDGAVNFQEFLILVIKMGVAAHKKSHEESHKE

Aβ40 Aβ40 (Homo sapiens) [5] = molecular target: Aβ40 Aβ40 (Homo sapiens) (UniProt P05067)
[6] = molecular target: Aβ1-40 Aβ1-40 (Homo sapiens) (UniProt P05067)
S100A13 (Homo sapiens) = S100A13 (Homo sapiens) (UniProt Q99584); assay: ITC
S100A13 (Homo sapiens), sequence (Q99584 whole entry): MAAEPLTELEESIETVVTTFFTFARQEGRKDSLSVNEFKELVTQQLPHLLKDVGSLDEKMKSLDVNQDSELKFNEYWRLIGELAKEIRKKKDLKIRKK

Aβ40 Aβ40 (Homo sapiens) [7] = molecular target: Aβ40 Aβ40 (Homo sapiens) (UniProt P05067); remark: listed apart in the source
Aβ Aβ (Homo sapiens) = Aβ Aβ (Homo sapiens) (UniProt P05067)
C1q (Homo sapiens) = C1q (Homo sapiens) (UniProt P02745); assay: SPR
C1q (Homo sapiens), sequence (P02745 23-245, chain 1 of 3): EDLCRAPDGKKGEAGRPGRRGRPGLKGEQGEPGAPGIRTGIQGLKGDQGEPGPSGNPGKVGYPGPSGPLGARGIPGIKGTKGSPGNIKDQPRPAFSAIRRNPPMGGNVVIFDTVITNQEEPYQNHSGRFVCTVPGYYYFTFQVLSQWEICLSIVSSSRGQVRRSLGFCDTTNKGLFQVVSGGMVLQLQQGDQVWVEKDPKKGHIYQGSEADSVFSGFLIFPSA
C1q (Homo sapiens), sequence (P02746 28-253, chain 2 of 3, further chain): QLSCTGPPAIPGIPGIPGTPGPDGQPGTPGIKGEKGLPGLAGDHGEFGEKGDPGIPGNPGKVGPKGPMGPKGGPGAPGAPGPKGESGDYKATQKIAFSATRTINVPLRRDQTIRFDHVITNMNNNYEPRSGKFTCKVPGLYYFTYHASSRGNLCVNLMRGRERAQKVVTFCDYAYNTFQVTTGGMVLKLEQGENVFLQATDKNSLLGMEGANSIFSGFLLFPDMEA
C1q (Homo sapiens), sequence (P02747 29-245, chain 3 of 3, further chain): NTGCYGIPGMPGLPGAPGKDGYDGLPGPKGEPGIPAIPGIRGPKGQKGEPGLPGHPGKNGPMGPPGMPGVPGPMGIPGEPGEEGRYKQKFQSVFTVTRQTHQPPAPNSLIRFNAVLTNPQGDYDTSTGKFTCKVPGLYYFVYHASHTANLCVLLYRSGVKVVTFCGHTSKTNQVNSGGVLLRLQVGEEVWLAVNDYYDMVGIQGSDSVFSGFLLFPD

HMGB1 (Homo sapiens) = HMGB1 (Homo sapiens) (UniProt P09429); assay: SPR
HMGB1 (Homo sapiens), sequence (P09429 whole entry): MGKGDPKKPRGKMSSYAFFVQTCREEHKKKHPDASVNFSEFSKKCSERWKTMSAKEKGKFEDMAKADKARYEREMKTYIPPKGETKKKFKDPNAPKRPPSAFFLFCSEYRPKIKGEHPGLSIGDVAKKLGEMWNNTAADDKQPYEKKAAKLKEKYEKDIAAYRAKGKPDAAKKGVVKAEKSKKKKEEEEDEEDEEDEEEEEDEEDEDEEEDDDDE

Aβ40 Aβ40 (Homo sapiens) [8] = molecular target: Aβ40 Aβ40 (Homo sapiens) (UniProt P05067); assay: given as Ka
S100A11 (Homo sapiens) = S100A11 (Homo sapiens) (UniProt P31949); assay: NMR
S100A11 (Homo sapiens), sequence (P31949 2-105): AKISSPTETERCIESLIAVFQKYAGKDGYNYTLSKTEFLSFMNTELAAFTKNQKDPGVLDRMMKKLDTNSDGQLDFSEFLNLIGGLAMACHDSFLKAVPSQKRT

S100A5 (Homo sapiens) = S100A5 (Homo sapiens) (UniProt P33763)
S100A5 (Homo sapiens), sequence (P33763 whole entry): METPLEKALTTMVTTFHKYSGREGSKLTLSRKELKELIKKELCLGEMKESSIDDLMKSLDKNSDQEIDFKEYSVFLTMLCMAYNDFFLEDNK

Aβ42 Aβ42 (Homo sapiens) [9] = molecular target: Aβ42 Aβ42 (Homo sapiens) (UniProt P05067); assay: MST
S100A6m (Homo sapiens) = S100A6m (Homo sapiens) (UniProt P06703); assay: ITC
S100P (Homo sapiens) = S100P (Homo sapiens) (UniProt P25815); assay: ITC
S100P (Homo sapiens), sequence (P25815 whole entry): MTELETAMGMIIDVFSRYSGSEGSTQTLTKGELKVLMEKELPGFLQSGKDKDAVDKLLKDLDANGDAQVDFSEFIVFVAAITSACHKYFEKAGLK

S100B (Homo sapiens) [10] = molecular target: S100B (Homo sapiens) (UniProt P04271); assay: ITC
[11] = molecular target: RAGE V domain (Homo sapiens) (UniProt Q15109)
RAGE (Homo sapiens) [12] = molecular target: RAGE (Homo sapiens) (UniProt Q15109); assay: SPR
[13] = molecular target: RAGE 23-132 (Homo sapiens) (UniProt Q15109)
[14] = molecular target: S100B (dimer) (Homo sapiens) (UniProt P04271); assay: SPR
S100B (dimer) (Homo sapiens), sequence (P04271 2-92): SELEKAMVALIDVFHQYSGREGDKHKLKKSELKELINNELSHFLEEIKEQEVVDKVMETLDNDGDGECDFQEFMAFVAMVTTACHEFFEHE

[15] = molecular target: iso-Aβ42 Aβ42 (Homo sapiens) (UniProt P05067); assay: MST
[16] = molecular target: pS8-Aβ42 Aβ42 (Homo sapiens) (UniProt P05067); assay: MST
[17] = molecular target: Aβ17-42 Aβ17-42 (Homo sapiens) (UniProt P05067); assay: MST

S100B (Homo sapiens), sequence (P04271 2-92): as above
fructose-BSA (AGE), sequence (P02769 25-607): as the sequence (P02769 25-607) above
glucose-BSA (AGE), sequence (P02769 25-607): as above
S100A8, sequence (P05109 whole entry): as the sequence (P05109 whole entry) above
S100A5, sequence (P33763 whole entry): as the sequence (P33763 whole entry) above
S100B, sequence (P04271 2-92): as the sequence (P04271 2-92) above
S100A9, sequence (P06702 whole entry): as the sequence (P06702 whole entry) above

Amyloid-beta 1-40 Abeta 1-40 (from UniProt P05067)
Kd (RAGE (Homo sapiens) [1]): 57 nM

Amyloid-beta 17-42 Abeta 17-42 (from UniProt P05067)
Kd (sRAGE ECD (Homo sapiens)): 10000 nM

RAGE 23-132 (from UniProt Q15109)
Kd (S100B (Homo sapiens) [2]): 500 nM

RAGE (from UniProt Q15109)
Kd (Aβ42 Aβ42 (Homo sapiens) [3]): 92 nM
Kd (glucose-BSA (Bos taurus)): 13900 nM
Kd [4]: 19500 nM
Kd (S100A9 (Homo sapiens)): 3.21 nM
Kd (S100A8 (Homo sapiens)): 70 nM
Kd (Aβ40 Aβ40 (Homo sapiens) [5]): 75 nM
Kd [6]: 57 nM

RAGE C2 (from UniProt Q15109)
Kd (S100A13 (Homo sapiens)): 1300 nM

RAGE V domain (from UniProt Q15109)
Kd (Aβ40 Aβ40 (Homo sapiens) [7]): 600 nM
Kd (Aβ Aβ (Homo sapiens)): 52.2 nM
Kd (C1q (Homo sapiens)): 5600 nM
Kd (HMGB1 (Homo sapiens)): 97.7 nM
Kd (Aβ40 Aβ40 (Homo sapiens) [8]): 625 nM
Kd (S100A11 (Homo sapiens)): 2650 nM
Kd (S100A5 (Homo sapiens)): 5900 nM
Kd (Aβ42 Aβ42 (Homo sapiens) [9]): 1000 nM
Kd (S100A6m (Homo sapiens)): 3000 nM
Kd (S100P (Homo sapiens)): 6200 nM

RAGE VC1 (from UniProt Q15109)
Kd (S100B (Homo sapiens) [10]): 3190 nM

S100A5 (from UniProt P33763)
Kd [11]: 5900 nM

S100A8 (from UniProt P05109)
Kd (RAGE (Homo sapiens) [12]): 70 nM

S100A9 (from UniProt P06702)
Kd (RAGE (Homo sapiens) [12]): 3.21 nM

S100B (from UniProt P04271)
Kd [13]: 500 nM

fructose-BSA (AGE) (from UniProt P02769)
Kd (RAGE (Homo sapiens) [12]): 19500 nM

glucose-BSA (AGE) (from UniProt P02769)
Kd (RAGE (Homo sapiens) [12]): 13900 nM

sRAGE ECD (from UniProt Q15109)
Kd [14]: 8300 nM
Kd [15]: 23000 nM
Kd [16]: 7000 nM
Kd [17]: 10000 nM
